Paper PMC8996997 (2022)

Target: His×6-YY1(wt) (human, UniProt P25490 1-414)
Experiment: SPR

- Kd: 258 nM
B1: His×6-YY1(260–414) (domain or fragment)
chain: LPPGGIPGIDLSDPKQLAEFARMKPRKIKEDDAPRTIACPHKGCTKMFRDNSAMRKHLHTHGPRVHVCAECGKAFVESSKLKRHQLVHTGEKPFQCTFEGCGKRFSLDFNLRTHVRIHTGDRPYVCPFDGCNKKFAQSTNLKSHILTHAKAKNNQ
